Starred links: 1 amine or outer side, 2 acyl side, 3 side chain; linkers in the order of their positions; H or OH if unused. Non-standard residues stand in square brackets, D forms with d. No end group written: not given here. rhArg = homoarginine with ψ(CH2NH) reduced amide bond, N=C(N)NCCCC[C@@H](C[*:2])N[*:1]; Oic = O=C(O)[C@@H]1C[C@@H]2CCCC[C@@H]2N1; Phe(4-Cl) = N[C@@H](Cc1ccc(Cl)cc1)C(=O)O; hArg = N=C(N)NCCCC[C@H](N)C(=O)O; Cha = N[C@@H](CC1CCCCC1)C(=O)O; Gly(N-CH2CH2OH) = O=C(O)CNCCO; αMeL = CC(C)C[C@](C)(N)C(=O)O; αMeOrn = C[C@](N)(CCCN)C(=O)O; αMeP = C[C@@]1(C(=O)O)CCCN1; αMeS = C[C@](N)(CO)C(=O)O; Nle = CCCC[C@H](N)C(=O)O; Orn = NCCC[C@H](N)C(=O)O; Nlys = NCCCCNCC(=O)O; BLeu = β-leucine
T1: rat APJ receptor (rat, UniProt Q9JHG3 1-377)
T1 sequence (looked up): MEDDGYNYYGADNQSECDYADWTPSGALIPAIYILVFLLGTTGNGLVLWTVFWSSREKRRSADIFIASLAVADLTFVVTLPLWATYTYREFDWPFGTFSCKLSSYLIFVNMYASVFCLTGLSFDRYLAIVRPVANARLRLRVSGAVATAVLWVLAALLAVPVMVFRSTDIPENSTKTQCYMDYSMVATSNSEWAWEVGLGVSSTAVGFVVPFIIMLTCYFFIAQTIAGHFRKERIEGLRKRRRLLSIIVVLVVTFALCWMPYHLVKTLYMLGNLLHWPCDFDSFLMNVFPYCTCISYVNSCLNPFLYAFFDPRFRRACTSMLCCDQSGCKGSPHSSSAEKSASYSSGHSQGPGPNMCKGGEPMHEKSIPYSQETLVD

T2: human APJ receptor (human, UniProt P35414 1-380)
T2 sequence (looked up): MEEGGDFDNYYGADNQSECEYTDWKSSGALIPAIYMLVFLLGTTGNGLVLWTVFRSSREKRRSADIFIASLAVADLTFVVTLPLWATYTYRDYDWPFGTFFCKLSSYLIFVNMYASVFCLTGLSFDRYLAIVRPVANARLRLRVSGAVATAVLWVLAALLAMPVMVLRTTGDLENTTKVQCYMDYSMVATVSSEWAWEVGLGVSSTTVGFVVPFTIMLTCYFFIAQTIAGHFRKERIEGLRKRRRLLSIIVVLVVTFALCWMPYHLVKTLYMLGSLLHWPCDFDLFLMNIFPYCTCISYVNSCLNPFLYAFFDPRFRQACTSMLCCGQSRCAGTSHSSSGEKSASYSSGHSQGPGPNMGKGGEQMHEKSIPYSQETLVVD

B1: apelin polypeptide SEQ ID NO: 31 (peptide)
peptide: Ac-[Orn]F[hArg][hArg]Q[hArg]P[hArg][Cha][Gly(N-CH2CH2OH)]HKG[Oic][Nle]P[Phe(4-Cl)]-OH
SMILES: CCCC[C@H](NC(=O)[C@@H]1C[C@@H]2CCCC[C@@H]2N1C(=O)CNC(=O)[C@H](CCCCN)NC(=O)[C@H](Cc1c[nH]cn1)NC(=O)CN(CCO)C(=O)[C@H](CC1CCCCC1)NC(=O)[C@H](CCCCNC(=N)N)NC(=O)[C@@H]1CCCN1C(=O)[C@H](CCCCNC(=N)N)NC(=O)[C@H](CCC(N)=O)NC(=O)[C@H](CCCCNC(=N)N)NC(=O)[C@H](CCCCNC(=N)N)NC(=O)[C@H](Cc1ccccc1)NC(=O)[C@H](CCCN)NC(C)=O)C(=O)N1CCC[C@H]1C(=O)N[C@@H](Cc1ccc(Cl)cc1)C(=O)O
B2: apelin polypeptide SEQ ID NO: 32 (peptide)
peptide: Ac-[Orn]F[hArg][hArg]Q[hArg]P[hArg][Cha]SH[Nlys]G[Oic][Nle]P[Phe(4-Cl)]-OH
B3: apelin polypeptide SEQ ID NO: 36 (peptide)
peptide: Ac-[Orn]F[hArg][hArg]Q[hArg]P[hArg][Cha]SH[αMeOrn]G[Oic][Nle]P[Phe(4-Cl)]-OH
B4: apelin polypeptide SEQ ID NO: 38 (peptide)
peptide: Ac-[Orn]F[hArg][hArg]Q[rhArg]P[hArg][Cha]SHKG[Oic][Nle]P[Phe(4-Cl)]-OH
modifications: also: reduced amide bond (CH2NH) at residue 6
B5: apelin polypeptide SEQ ID NO: 34 (peptide)
peptide: Ac-[Orn]F[hArg][hArg]Q[hArg]P[hArg][αMeL]SHKG[Oic][Nle]P[Phe(4-Cl)]-OH
SMILES: CCCC[C@H](NC(=O)[C@@H]1C[C@@H]2CCCC[C@@H]2N1C(=O)CNC(=O)[C@H](CCCCN)NC(=O)[C@H](Cc1c[nH]cn1)NC(=O)[C@H](CO)NC(=O)[C@](C)(CC(C)C)NC(=O)[C@H](CCCCNC(=N)N)NC(=O)[C@@H]1CCCN1C(=O)[C@H](CCCCNC(=N)N)NC(=O)[C@H](CCC(N)=O)NC(=O)[C@H](CCCCNC(=N)N)NC(=O)[C@H](CCCCNC(=N)N)NC(=O)[C@H](Cc1ccccc1)NC(=O)[C@H](CCCN)NC(C)=O)C(=O)N1CCC[C@H]1C(=O)N[C@@H](Cc1ccc(Cl)cc1)C(=O)O
B6: apelin polypeptide SEQ ID NO: 30 (peptide)
peptide: Ac-[Orn]F[hArg][hArg]Q[hArg]P[hArg][BLeu]SHKG[Oic][Nle]P[Phe(4-Cl)]-OH
B7: apelin polypeptide SEQ ID NO: 39 (peptide)
peptide: Ac-[Orn]F[hArg][hArg]Q[hArg]P[rhArg][Cha]SHKG[Oic][Nle]P[Phe(4-Cl)]-OH
modifications: also: reduced amide bond (CH2NH) at residue 8
B8: apelin polypeptide SEQ ID NO: 33 (peptide)
peptide: Ac-[Orn]F[hArg][hArg]Q[hArg][αMeP][hArg][Cha]SHKG[Oic][Nle]P[Phe(4-Cl)]-OH
B9: apelin polypeptide SEQ ID NO: 714 (peptide)
peptide: [Orn]F[hArg][hArg]Q[hArg]P[hArg][Cha]SHKG[Oic][Nle]P[Phe(4-Cl)]
B10: apelin polypeptide SEQ ID NO: 35 (peptide)
peptide: Ac-[Orn]F[hArg][hArg]Q[hArg]P[hArg][Cha][αMeS]HKG[Oic][Nle]P[Phe(4-Cl)]-OH
B11: apelin polypeptide SEQ ID NO: 37 (peptide)
peptide: Ac-[Orn]F[hArg][hArg]Q[hArg]P[hArg][Cha]SHKG[Oic][Nle][αMeP][Phe(4-Cl)]-OH

Target: T1, rat APJ receptor
Experiment: cell-based or functional assay

EC50 Rat APJ Receptor [nM]	Binder
0.703	B1
1.51	B2
1.94	B3
1.3	B4
0.193	B5
0.456	B6
0.323	B7
0.318	B8
0.271	B9
0.185	B10
0.136	B11

Target: T2, human APJ receptor
Experiment: cell-based or functional assay

EC50 Human APJ Receptor [nM]	Binder
0.116	B1
0.25	B2
0.355	B3
0.0869	B4
0.0519	B5
0.166	B6
0.253	B7
0.0985	B8
0.168	B9
0.0861	B10
0.0672	B11

— patent publication US10941182 (Amgen, dated 2021)
